What all share (experiment): BLI
(In general: BLI is a label-free optical method that tracks binding on a fibre tip over time.)

Experiment [1] concerns the target T1, COBRA P1 HA wild type, CHO expressed, for binding assays (glycosylation at Asn127).
Experiment [2] has as its target COBRA P1 HA N127D mutant, CHO expressed, for binding assays.
For experiment [3], the target named is T1, COBRA P1 HA wild type, CHO expressed, …. The source holds these as a separate data set.

Values joined by “and” are separate entries in the source; they are usually repeats but may differ in a detail not shown here. Equal values may be shown once.

Usually Kd stands for a measure of binding affinity in units of concentration. The koff is a measure of how fast the partners let go of each other. A higher koff goes with fast dissociation.

B1: Fab 1F8 (recombinant Fab of the P1-elicited mouse monoclonal antibody 1F8) (Fab, V domains shown)
VH: QVQLQQSGAELMKPGASVKISCKATGYTFSSYWIEWVKQRPGHGLEWIGEILPGSGRTNYDERFKGKATFTADTSSNTAYMQLSSLTSEDSAVYYCARPRIYGMDYWGQGTSVTVSS
VL: DIVLTQSPASLAVSLGQRATISCKASQSVDFDGDTYMSWYQQKPGQPPKLLIYAASKLESGIPARFSGSGSGTDFTLNIHPVEEEDAATYFCQQSNEDPWTFGGGTKLEIK
Regarding B1, in experiment [1], the dissociation constant Kd is 2.56 nM and 3.35 nM. For the same molecule, the koff in experiment [2] worked out at 0.000855 s⁻¹; in experiment [3], 0.000813 s⁻¹.

Source of the values: paper PMC10126545 (2023).
